Experimental data: publication PMC10133315, “Overcoming adaptive resistance to anti-VEGF therapy by targeting CD5L”

Target: T1, CD5L (AIM) (Homo sapiens, UniProt O43866 20-347)
T1 sequence: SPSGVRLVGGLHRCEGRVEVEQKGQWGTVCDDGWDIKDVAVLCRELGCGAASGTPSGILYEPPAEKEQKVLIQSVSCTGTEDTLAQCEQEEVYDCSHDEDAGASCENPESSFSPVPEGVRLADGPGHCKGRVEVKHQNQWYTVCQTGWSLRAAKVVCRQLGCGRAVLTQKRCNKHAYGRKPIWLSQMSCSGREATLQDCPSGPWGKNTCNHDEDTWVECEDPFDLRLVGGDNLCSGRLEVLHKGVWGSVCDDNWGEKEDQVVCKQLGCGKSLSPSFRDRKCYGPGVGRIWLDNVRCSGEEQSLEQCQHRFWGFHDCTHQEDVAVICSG
Test: MST; Cy5-S76.T 2 nM, CD5L titrated; MST: S11/S23 in binding buffer pH 7.4, 1 mM MgCl2, 0.1% Tween 20, 1 nM labelled protein; S76 in TBS; S76.T (Cy5, 2 nM) in 50 mM Tris-HCl pH 7.8, 150 mM NaCl, 0.05% Tween 20; temperature not stated
Details: protein: commercial; tags: His-tag; label: Cy5; hairpin

Binder: AGGUUGCAGCGUUCGACAGGAGGCUCACAACAG (structured_RNA, 2'-fluoro pyrimidines) [S76.T]
- Kd: 10.1 ± 2.3 nM
